Target: the molecule itself
Test: SEC; HiLoad 16/60 Superdex 200 Prep Grade column, 50 mM HEPES pH 7.0, 200 mM NaCl; elution at 61 mL, compared with standards

B1: Phosphopentomutase from Thermococcus kodakarensis (PPMTk) (enzyme)
chain: RLFGTAGIRGTLWEKVTPELAMKVGMAVGTYKSGKALVGRDGRTSSVMLKNAMISGLLSTGMEVLDADLIPTPALAWGTRKLADAGVMITASHNPPTDNGVKVFNGDGTEFYVEQERGLEEIIFSGNFRKARWDEIKPVRNVEVIPDYINAVLDFVGHETNLKVLYDGANGAGSLVAPYLLREMGAKVLSVNAHVDGHFPGRKPEPRYENIAYLGKLVRELGVDLAIAQDGDADRIAVFDEKGNYVDEDTVIALFAKLYVEEHGGGTVVVSIDTGSRIDAVVERAGGRVVRIPLGQPHDGIKRYKAIFAAEPWKLVHPKFGPWIDPFVTMGLLIKLIDENGPLSELVKEIPTYYLKKANVLCPDEYKAEVVRRAAEEVERKLSSEIKEVLTISGFRIALNDGSWILIRPSGTEPKIRVVAEAPTEKRRDELFEMAYSTVSRIVKEAEKK
notes: Phosphopentomutase PPMTk of Thermococcus kodakarensis, encoded by open reading frame TK1777; UniProt entry Q6I7B6; residues 3-447 are modelled in each of the four protomers of the crystal structure; the tag was cut off with TEV protease before SEC and the later analyses; also called TK1777; Tk1777; not shown: His6, N-terminal, cleaved
stoichiometry N: 4
